Target: muscle RAS oncogene homolog (MRAS) fused to mCherry, expressed from pmCherry-MRAS (UniProt O14807)
Test: FRET or BRET; FRET between GFP (donor, excited at 488 nm) and mCherry (acceptor, emission 610 nm) fusion proteins, imaged in MCF-7 cells

For “G-protein gamma subunit 2 (GNG2) fused to EGFP, expressed from pEGFP-GNG2 (from UniProt P59768 1-71) (natural protein)”, which FRET efficiency is on record?
Its FRET efficiency is 11%.

— PMC8943035
